In patent US7056900B2, “Disaccharide derivatives for treating hyperglycaemia” (Sudzucker Aktiengesellschaft Mannheim Ochsenfurt, priority 1997, dated 2006):

Legend:
[1] = substrate: OC[C@H]1O[C@@](CO)(O[C@H]2O[C@H](CO)[C@@H](O)[C@H](O)[C@H]2O)[C@@H](O)[C@@H]1O; experiment: Inhibition of SI-catalyzed hydrolysis of sucrose (SI/sucrose), coupled HK/G6PDH optical test; assay type: biochemical, hog; conditions: other: SI/sucrose basic kinetics, substrate, mean, 37° C., pH 7.0
Protocol: A) The activity of the SI enzyme complex was studied using three different substrates, that is to say sucrose, maltose and isomaltose.
B) In the methods described hereinafter for determining the enzyme activity of sucrase/isomaltase and glucoamylase/maltase under the influence of the substances tested, the amount of glucose or fructose released was determined as measured parameter. […] The measurement was made at 37° C. and a pH of 7.0.
(§1) In individual tests, the semimicro assay was used, but this was reduced in some cases to a micro assay.
(§2) C) Before the inhibitor strengths were determined, for each enzyme-substrate combination basic kinetics were established in which not only the Michaelis-Menten constant (KM [mmol/l]) but also the maximum velocity (Vmax [μmol/mLmin]) were determined. […]
(§3) The level of the inhibitor concentrations used depended on the strength of the resulting inhibition. […] The inhibitor constants Ki and Kii were, unless stated otherwise, determined from secondary Lineweaver-Burk plots.

[2] = substrate: OC[C@H]1O[C@H](O[C@H]2[C@H](O)[C@@H](O)[C@H](O)O[C@@H]2CO)[C@H](O)[C@@H](O)[C@@H]1O; experiment: Inhibition of SI-catalyzed hydrolysis of maltose (SI/maltose), coupled HK/G6PDH optical test; assay type: biochemical, hog; conditions: other: SI/maltose basic kinetics, substrate, mean, 37° C., pH 7.0
Protocol: The maltase activity was studied using the substrate maltose.
B) In the methods described hereinafter for determining the enzyme activity of sucrase/isomaltase and glucoamylase/maltase under the influence of the substances tested, the amount of glucose or fructose released was determined as measured parameter. This took place in an enzymatic optical test using hexokinase (HK) and glucose-6-phosphate dehydrogenase (G6PDH) as a coupled detection system (Beutler, H.-O.; in: Methods of Enzymatic Analysis; Bergmeyer, H. U.; Bergmeyer, J.; Graβl, M. (editors); 3rd edition; Vol. VI, 2–10). The measurement was made at 37° C. and a pH of 7.0.
as §1, §2, §3

B1: sucrase/isomaltase (SI) (Sus scrofa) (protein)
chain: MARKKFSGLEISLIVLFAIVTIIAIALVVVLATKTPAVEEISDSTSTPATTRTTTPYPGSGKCPSELNDPINERINCIPDQFPTQTLCATRGCCWKPWNDSIIPWCFFVDNHGYNVEGTTSTNTGLEAKLNRIPSPTLFGDDINSVLLTTQSQTPNRFRFKITDPNNRRYEVPHQFVKEFSGTAASDTLYDVQVIENPFSIKIIRKSNNRILFDTSIGPLVYSDQYLQLSARLSSEYIYGIGEHIHKRFRHDLYWKTWPIFTRDQLPGDNNNNLYGHQTFFMCIEDTSGKSFGVFLMNSNAMEIFIQPTPIVTYRIIGGILDFYIFLGDTPEQVVQQYQELIGRPAMPAYWSLGFQLSRWDYKSLDVVKEVVQRNREAGIPFDTQVTDIDYMEDKKDFTYDHVAFNGLPEFVQDLHDHGQKYVIILDPAISIQKLASGAAYETYDRGTAQNVWINESDGTTAIIGEVWPGLTVYPDFTSPNCIEWWANECSIFHQVVNYDGLWIDMNEVSSFVHGSEKGCSDNKLNYPPFTPGILDKLLYAKTVCMDSVQYWGKQYDVHSLYGYSMAIATEKAVEKVFRNKRSFILTRSTFAGSGSHAAHWLGDNTASWEQMEWSITGMLEFSLFGIPLVGADICGFVVETTEELCRRWMQLGAFYPFSRNHNAQGYEHQDPAFFGQNSLLVNSSKHYLNIRYTLLPFLYTLFYKAHMFGETVVRPILHEFYEDTNSWIEDTQFLWGPSLLITPVLKQGASTVSAYIPNATWYDYETGAKRPWRKQRVDMYLPADKIGLHLRGGYIIPIQQPAVTTTASRKNPLGLIVALDEYNTAEGDFFWDDGETKDTIQNGSYIFYTFSVSNNKLDIMCTHSSYQEGTTLAFETIKILGLIDAVTEVSVVEGDQPMSAHYNFTYDASNQYLLIYNLKFNLGRNFTVQWDQTFLDAEKFTCYPDTDTITKELCEERGCLWQESHLESKAPECFFPKEDNSYLVQSTQYSSLGVTADLQLNTASTRIKLPSDPIPTLRVEVKYHKDYMLQFKIYDPQNKRYEVPVPLNIPTTPTSTYENRLYDVEIKENPFGIQIRRRSTGKVIWDSRLPGFAFNNQFIQISTRLPSEYIYGFGEVEHTAFKRDLNWNTWGMFTRDQPPGYKLNSYGFHPYYMALEDESHAHGVLLLNSNAMDVTFQPTPALTYRIIGGILDFYMFLGPSPEVATKQYHEVIGRPVMPPYWALGFQLCRYGYRNTSQVEEVYNDMVTAQIPYDVQYTDIDYMERQLDFTIGEEFRELPKFVDKIRNEGMRYIIILDPAISGNETEPYPAFDRGQEKDVFVKWPNTSDICWAKVWPDLPNVTIDESLTEDEAVNASRAHVAFPDFFRNSTAEWWAREIIDFYNNQMKFDGLWIDMNEPSSFVNGTTTNQCRNTELNYPPYFPELTKRTEGLHFRTMCMETEQILSDGSSVLHYDVHNLYGWSQVKPTYDALQKATGKRGIVISRSTYPTAGRWAGHWLGDNYAKWDNLDKSIIGMMEFSLFGISYTGADICGFFNNSEYQLCARWMQLGAFYPYSRNHNIAFTRRQDPASWNETFSEMSRNILNIRYTLLPYFYTQMHEIHAYGGTVIRPLLHEFFNEKPTWDIFKQFLWGPAFLVTPVLEPFADTVQGYVPNARWFDYHTGKDIGIRETFHIFSAPLYEINLHVRGGHILPCQEPAQNTFFSRQNFMKLIVAADDNQTAQGNLFWDDGETIDTYERDLYFLVQFNFNKSILTSTILKNSYINRNEMRLGYVLIWGKEKTSVNEVNLIYNGNKETVPFVEDLNQEILNIDLRGLNVTLDEPIEISWS
notes: isolated by papain digestion from hog small intestine mucosa and enriched by ammoniumsulfate precipitation; from tissue; host or cells: hog small intestine mucosa
- Km [1]: 58.8 ± 11.4 mmol/L
- Vmax [1]: 7700 µM/min
- Km [2]: 11.2 ± 2.6 mmol/L
- Vmax [2]: 5900 µM/min
